This assay concerns the target T1, HBsAg (Prospec HBS-872) (hepatitis B virus).
T1 chain: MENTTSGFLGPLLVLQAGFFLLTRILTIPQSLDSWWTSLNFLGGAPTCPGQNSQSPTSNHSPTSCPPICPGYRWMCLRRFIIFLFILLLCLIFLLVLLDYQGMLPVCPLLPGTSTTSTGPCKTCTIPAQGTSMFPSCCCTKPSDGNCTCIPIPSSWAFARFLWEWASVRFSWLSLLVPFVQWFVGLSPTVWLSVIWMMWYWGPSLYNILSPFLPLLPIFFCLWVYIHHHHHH
Briefly: ELISA, plate coated with HBsAg (Prospec HBS-872), anti-human lambda-HRP detection, weight concentrations. A general note: An ELISA detects its analyte on a solid surface through an enzyme-linked reagent.

This is an account of results in patent US20180118814A1 (IGM BIOSCIENCES, published 2018).

B1: HBV23MJ (antibody)
heavy: EVQVLESGGGLVQPGGSLRLSCAASGFRFSSYAMSWVRQAPGKGLEWVSGISGTGENTYYADSVKGRFTISRDNSKNTLYVQMNSLRAEDTAVYYCAKDAILGSGHPWYFHVWGRGTLVTVSSGSASAPTLFPLVSCENSPSDTSSVAVGCLAQDFLPDSITFSWKYKNNSDISSTRGFPSVLRGGKYAATSQVLLPSKDVMQGTDEHVVCKVQHPNGNKEKNVPLPVIAELPPKVSVFVPPRDGFFGNPRKSKLICQATGFSPRQIQVSWLREGKQVGSGVTTDQVQAEAKESGPTTYKVTSTLTIKESDWLSQSMFTCRVDHRGLTFQQNASSMCVPDQDTAIRVFAIPPSFASIFLTKSTKLTCLVTDLTTYDSVTISWTRQNGEAVKTHTNISESHPNATFSAVGEASICEDDWNSGERFTCTVTHTDLPSPLKQTISRPKGVALHRPDVYLLPPAREQLNLRESATITCLVTGFSPADVFVQWMQRGQPLSPEKYVTSAPMPEPQAPGRYFAHSILTVSEEEWNTGETYTCVVAHEALPNRVTERTVDKSTGKPTLYNVSLVMSDTAGTCY
light: SYVLTQPPSVSVAPGQTARMTCGGNNIGSESVHWFQQKPGQAPVLVVYDDSDRPSGIPERFSGSNSGNTATLTISRVEAGDEADYYCQVWDSSSDHAVFGGGTQLTVLGQPKAAPSVTLFPPSSEELQANKATLVCLISDFYPGAVTVAWKADSSPVKAGVETTTPSKQSNNKYAASSYLSLTPEQWKSHRSYSCQVTHEGSTVEKTVAPTECS
chain: not shown
notes: Human IgM with human J-chain; also called HBV23 anti-HBsAg IgM+human J-chain
On to B1, for which the 50% effective concentration (EC50) was 0.064 µg/mL.

B2: HBV23G (antibody, human IgG1, lambda, V domains shown)
VH: EVQVLESGGGLVQPGGSLRLSCAASGFRFSSYAMSWVRQAPGKGLEWVSGISGTGENTYYADSVKGRFTISRDNSKNTLYVQMNSLRAEDTAVYYCAKDAILGSGHPWYFHVWGRGTLVTVSS
VL: SYVLTQPPSVSVAPGQTARMTCGGNNIGSESVHWFQQKPGQAPVLVVYDDSDRPSGIPERFSGSNSGNTATLTISRVEAGDEADYYCQVWDSSSDHAVFGGGTQLTVLG
notes: also called IgG counterpart (HBV23G); human IgG antibody provided in Cerino et al. (2015)
Molecule B2 returned a concentration giving a half-maximal response (EC50) of 0.03 µg/mL.

Usually EC50 stands for the concentration needed to bring the measured effect to its halfway point. A low value points to a more potent agent.
